# Experimental data: US20200339638
# Columns and labels:
# Assay in all cases: cell_activity
# ZFP-TF 75109 (synthetic) = conditions: expanded isoform, C9 patient fibroblasts; about 50% total C9 maintained
# ZFP-TF 75114 (synthetic) = conditions: expanded sense transcript, C9021 fibroblasts; total C9 preserved >50%; no repression in C9-BAC mice (p172)
# ZFP-TF 75115 (synthetic) = conditions: expanded sense transcript, C9021 fibroblasts; total C9 preserved >50%
sequence,measurement,setting,value
"CACGCCCCGGCCCCGGCCCCGGCCCCTA (double strand) [C9orf72 antisense target, frame 4]",activity,ZFP-TF 75109 (synthetic),70 % repression
same,activity,ZFP-TF 75114 (synthetic),> 70 % repression
same,activity,ZFP-TF 75115 (synthetic),> 70 % repression
